{
  "source": "patent US8691225B2",
  "about": "“Antibodies against the ectodomain of ErbB3 and uses thereof” (Merrimack Pharmaceuticals, Inc., priority 2007, dated 2014)",
  "molecules": {"B1": {"name": "Ab #6: human anti-ErbB3 antibody from Fab-phage library, CDRs SEQ ID NOs:7-12; used as IgG1 and IgG2 isotypes; in phase I trials as MM-121 (antibody, V domains shown)", "VH": "EVQLLESGGGLVQPGGSLRLSCAASGFTFSHYVMAWVRQAPGKGLEWVSSISSSGGWTLYADSVKGRFTISRDNSKNTLYLQMNSLRAEDTAVYYCTRGLKMATIFDYWGQGTLVTVSS", "VL": "QSALTQPASVSGSPGQSITISCTGTSSDVGSYNVVSWYQQHPGKAPKLIIYEVSQRPSGVSNRFSGSKSGNTASLTISGLQTEDEADYYCCSYAGSSIFVIFGGGTKVTVL"}},
  "key": {"[1]": {"tested_on": "HGF induced ErbB3 phosphorylation in AdrR cells", "assay": "HGF induced ErbB3 phosphorylation in AdrR cells", "type": "cell-based, human", "method": "Various ligands are tested for inducement of ErBb3 phosphorylation. At least three ligands, HRG, BTC, and HGF, are able to stimulate ErbB3 induced phosphorylation in AdrR cells, while EGF can not. […] Further, as known in the art (see, e.g., Wallenius et al. (2000) Am J Pathol. 156 (3):821-9), enhanced HGF signaling has been reported in various epithelial and non-epithelial tumors.\nc-MET-ErbB3 interactions also occur in AdrR cells carrying the wild type EGFR and is not dependent on amplified c-MET."}, "[2]": {"biological_target": "T1, heregulin binding to ErbB3 on MALME-3M cells (Homo sapiens, UniProt P21860)", "T1 construct": "ErbB3 expressed on MALME-3M melanoma cells; host or cells: MALME-3M melanoma cells", "assay": "biotinylated heregulin binding to MALME3M cells by FACS", "type": "cell-based", "conditions": "5 μM antibody, 20 nM heregulin EGF", "method": "After 30 minutes, 50 μl of 40 nM biotinylated heregulin EGF is added to the cells and incubated for another 10 minutes on ice. This yields a final concentration of 5 μM antibody and 20 nM heregulin EGF. Cells are then washed twice with 500 μl BD stain buffer and incubated with 100 μl of a 1:200 dilution of streptavidin-PE (PE=phycoerythrin) (Invitrogen) in BD stain buffer for 45 minutes. Finally, cells are washed twice, resuspended in 300 μl of BD stain buffer and analyzed in a FACSCALIBUR flow cytometer. As a positive control, 1×10^5 MALME3M cells are incubated with 20 nM heregulin EGF for 10 minutes on ice, washed twice and incubated with a 1:200 dilution of streptavidin-PE for 45 minutes. In order to assess background staining from the streptavidin-PE conjugate, 1×10^5 MALME3M cells are incubated with 100 μl of a 1:200 dilution of streptavidin-PE only for 45 minutes."}, "[3]": {"tested_on": "HB-EGF binding to AdrR cells", "assay": "biotinylated HB-EGF binding to AdrR cells by FACS", "type": "cell-based, human", "conditions": "12.5 μM antibodies, 200 nM HB-EGF", "method": "After 30 minutes, 50 μl of 400 nM biotinylated HB-EGF is added to the cells and incubated for another 30 minutes on ice. This yields a final concentration of 12.5 μM antibodies and 200 nM HB-EGF. Cells are then washed twice with 500 μl BD stain buffer and incubated with 100 μl of a 1:200 dilution of streptavidin-PE (PE=phycoerythrin) (Invitrogen) in BD stain buffer for 45 minutes. Finally, cells are washed twice, resuspended in 300 μl of BD stain buffer and analyzed in a FACSCALIBUR flow cytometer. As a positive control, 1×10^5 AdrR cells are incubated with 200 nM HB-EGF for 30 minutes on ice, washed twice and incubated with a 1:200 dilution of streptavidin-PE for 45 minutes. To assess background staining from the streptavidin-PE conjugate, cells are incubated with 100 μl of a 1:200 dilution of streptavidin-PE only for 45 minutes."}, "[4]": {"tested_on": "phosphorylated ErbB3 (pErbB3) in AdrR ovarian xenografts", "assay": "ErbB3 phosphorylation in AdrR ovarian xenografts in vivo", "parameters": "species or system mouse", "conditions": "pErbB3 in ng/mg of total protein", "method": "The samples are pulverized substantially as described in Example 5 supra, with respect to FIG. 8. The BCA assay is performed substantially as set forth in the Materials and Methods section supra, and the ELISA assay is performed substantially as described in Example 5 supra with respect to FIG. 8."}, "[5]": {"tested_on": "ErbB3 phosphorylation in OVCAR 5", "assay": "ErbB3 phosphorylation ELISA in ovarian tumor cell line", "type": "cell-based, human", "conditions": "IgG2 isotype", "method": "(§1) All ELISA reagents for the total and phospho-ErbB3 ELISAs are purchased from R&D Systems as DUOSET kits. 96-well NUNC MAXISORB plates are coated with 50 uL of an antibody and incubated overnight at room temperature. Next morning, plates are washed 3 times with […] in the BIOTEK plate washer with Dulbecco's phosphate buffered saline without calcium or magnesium (PBS) with added Tween detergent (PBST) (0.05% Tween-20). […] The plates are washed 3 times with […] in the BIOTEK plate washer with PBST (0.05% Tween-20). 50 μL of cell lysates and standards diluted in 50% Lysis buffer and 1% BSA are used in duplicates for further processing. Samples are incubated for 2 hrs at 4° C. on a plate shaker and washed as before. About 50 μl of a detection antibody diluted in 2% BSA, PBST is added and incubated for about 1 hr at room temperature. For phosphor-ErbB3, the detection antibody is directly conjugated to horseradish peroxidase (HRP) and incubated for 2 hrs at room temperature. The plate is washed as before. About 50 μl of Streptavidin-HRP is added and incubate for 30 min at room temperature (except for pErbB3). The plates are washed as before. About 50 μL of SUPERSIGNAL ELISA Pico (Thermo Scientific) substrate is added and the plate is read using a FUSION plate reader. The data are analyzed using EXCEL. […]"}, "[6]": {"tested_on": "ErbB3 phosphorylation in OVCAR 8", "assay": "ErbB3 phosphorylation ELISA in ovarian tumor cell line", "type": "cell-based, human", "conditions": "IgG2 isotype", "method": "as §1"}, "renal (ACHN) xenograft": {"tested_on": "renal (ACHN) xenograft", "assay": "xenograft tumor growth in nude mice", "type": "in vivo, mouse", "conditions": "600 ug Q3d versus 300 ug"}, "[7]": {"tested_on": "DU145 (a prostate tumor cell line) xenograft tumors", "assay": "DU145 xenograft combination therapy", "type": "in vivo, mouse", "conditions": "Ab #6 300 μg IP every three days; taxol 20 mg/kg IP once per week", "method": "In a second experiment, mice bearing DU145 (a prostate tumor cell line) xenograft tumors are prepared by establishing tumors subcutaneously in the flanks of nude mice (Charles River Laboratories). […] Again, tumor size is measured twice a week and measurements are used to calculate tumor volume."}, "[8]": {"biological_target": "T2, epiregulin binding to AdrR cells (Homo sapiens, UniProt P21860)", "T2 construct": "host or cells: AdrR (NCI/AdrR) ovarian cancer cells", "assay": "biotinylated epiregulin binding to AdrR cells by FACS", "type": "cell-based", "conditions": "12.5 μM antibodies, 1 μM Epi", "protocol": "After 30 minutes, 50 μl of 2 μM biotinylated Epi is added to the cells and incubated for another 30 minutes on ice. This yields a final concentration of 12.5 μM antibodies and 1 μM Epi. Cells are then washed twice with 500 μl BD stain buffer and incubated with 100 μl of a 1:200 dilution of streptavidin-PE (PE=phycoerythrin, a fluorescent protein) (Invitrogen) in BD stain buffer for 45 minutes. Finally, cells are washed twice, resuspended in 300 μl of BD stain buffer and analyzed in a FACSCALIBUR flow cytometer. As a positive control, 1×10^5 AdrR cells are incubated with 1 μM Epi for 30 minutes on ice, washed twice and incubated with a 1:200 dilution of streptavidin-PE for 45 minutes. To assess background staining from the streptavidin-PE conjugate, cells are incubated with 100 μl of a 1:200 dilution of streptavidin-PE only for 45 minutes."}},
  "data": [
    {"molecule": "B1", "values": [
      {"measurement": "inhibition of HGF induced ErbB3 phosphorylation", "setting": "[1]; AdrR cells", "value": "inhibits HGF induced ErbB3 phosphorylation"},
      {"measurement": "IC50", "setting": "[1]; HGF induced ErbB3 phosphorylation in AdrR cells (FIG. 28)", "value": 0.244, "unit": "nM"},
      {"measurement": "inhibition of heregulin binding to ErbB3", "setting": "[2]", "value": "able to inhibit heregulin binding to ErbB3"},
      {"measurement": "inhibition of HB-EGF binding to AdrR cells", "setting": "[3]", "value": "does not inhibit this binding"},
      {"measurement": "inhibition of ErbB3 phosphorylation in vivo", "setting": "[4]", "value": "significantly inhibited ErbB3 phosphorylation"},
      {"measurement": "inhibition of ErbB3 phosphorylation", "setting": "[5]", "value": "inhibited ErbB3 phosphorylation"},
      {"measurement": "inhibition of ErbB3 phosphorylation", "setting": "[6]", "value": "inhibited ErbB3 phosphorylation"},
      {"measurement": "inhibition of tumor growth", "setting": "renal (ACHN) xenograft", "value": "further elevated"},
      {"measurement": "inhibition of tumor growth (tumor volume)", "setting": "[7]", "value": "inhibited tumor growth"},
      {"measurement": "inhibition of epiregulin binding to AdrR cells", "setting": "[8]", "value": "inhibited"}
    ]}
  ]
}
